Test results published in patent US20050042213A1, “Methods and pharmaceutical compositions for modulating heparanase activation and uses thereof” (InSight Biopharmaceuticals Ltd., priority 2003, published 2005).
Changes are numbered by the printed parent chain.

T1: pro-heparanase (H60) (Homo sapiens, UniProt Q9Y251, K307R)
T1 sequence (Q9Y251 36-543 K307R): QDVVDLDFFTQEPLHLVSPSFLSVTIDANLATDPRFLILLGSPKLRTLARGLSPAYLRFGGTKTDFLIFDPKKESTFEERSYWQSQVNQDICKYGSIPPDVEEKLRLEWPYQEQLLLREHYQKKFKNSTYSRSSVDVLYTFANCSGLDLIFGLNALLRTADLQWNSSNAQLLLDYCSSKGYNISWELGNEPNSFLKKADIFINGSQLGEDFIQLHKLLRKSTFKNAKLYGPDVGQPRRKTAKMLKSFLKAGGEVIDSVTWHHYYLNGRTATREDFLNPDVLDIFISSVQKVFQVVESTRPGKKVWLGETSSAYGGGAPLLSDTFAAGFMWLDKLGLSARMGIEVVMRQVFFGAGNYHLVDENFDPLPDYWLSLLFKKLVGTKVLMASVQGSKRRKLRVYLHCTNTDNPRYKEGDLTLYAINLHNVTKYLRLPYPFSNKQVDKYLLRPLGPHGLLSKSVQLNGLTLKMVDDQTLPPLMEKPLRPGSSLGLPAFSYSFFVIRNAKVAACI

B1: H60 − heparin: purified 60 kDa pro-heparanase without heparin (protein)
chain: T1 sequence (Q9Y251 36-543 K307R)
B2: H60 + heparin: 60 kDa pro-heparanase in the presence of heparin (protein, UniProt Q9Y251 36-543, looked up)
pro-form: T1 sequence (Q9Y251 36-543 K307R) with R272K
modifications: pro-form with heparin
notes: 60 kDa pro-heparanase in the presence of heparin

Target: T1, pro-heparanase (H60)
Test: Circular dichroism spectrometry of pro-heparanase
Set-up: key to a helix / β strand / β turn / Un-ordered: fraction of secondary structure (0-1)
Settings: fraction of secondary structure of H60
Protocol: Circular Dichroism spectrometry—Circular Dichroism spectra were recorded using a JASCO 500 spetropolarimeter. Far Ultraviolet measurements (260-200 nm) were performed in a 0.1 mm demountable cuvette at 25° C., scanning at a rate of 10 nm/min. Pro-heparanase was assayed at a concentration of 0.72 mg/ml in 20 mM sodium phosphate buffer pH 6.8 supplemented with 300 mM NaCl. Effect of heparin on pro-heparanase spectra was determined at a concentration of 100 μM, and the inhibitor was added at a concentration of 15 μM. Base-line recordings were performed in the presence and absence of heparin to correct the pro-heparanase spectra.

Row | Molecule | Un-ordered | a helix | β strand | β turn
1 | B1 | 0.33 | 0.29 | 0.26 | 0.12
2 | B2 | 0.3 | 0.44 | 0.26 | 0
